Experiments:
[1] = molecular target: recombinant human PD-L1 (Sino Biological Inc., catalog number 100 84-H08H) (human, UniProt Q9NZQ7 19-239); experiment: ELISA; Fig. 8A
[2] = molecular target: recombinant human 4-1BB (Sino Biological Inc., catalog number 10041-H08H) (human, UniProt Q07011 24-186); experiment: ELISA; Fig. 8B
[3] = molecular target: T1, human PD-L1-Fc (ACROBiosystems, catalog number PD1-H5258) (human, UniProt Q9NZQ7 19-238); experiment: competition ELISA; blocking PD-L1/CD80
[4] = molecular target: T1, human PD-L1-Fc (ACROBiosystems, catalog …); experiment: competition ELISA; blocking PD-L1/PD-1
[5] = molecular target: 4-1BB on GS-H2/4-1BB cells (purchased from GenScript) (UniProt Q07011 24-255); experiment: FACS binding; Fig. 8C, GS-H2/4-1BB cells
4-1BB on GS-H2/4-1BB cells (purchased from GenScript), sequence (Q07011 24-255): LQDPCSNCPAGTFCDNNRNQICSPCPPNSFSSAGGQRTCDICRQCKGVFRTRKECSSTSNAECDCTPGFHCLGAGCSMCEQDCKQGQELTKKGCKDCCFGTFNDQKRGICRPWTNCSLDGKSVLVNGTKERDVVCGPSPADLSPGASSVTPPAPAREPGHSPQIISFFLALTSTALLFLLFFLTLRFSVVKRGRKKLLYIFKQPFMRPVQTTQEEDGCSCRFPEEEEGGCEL

T1 sequence (Q9NZQ7 19-238): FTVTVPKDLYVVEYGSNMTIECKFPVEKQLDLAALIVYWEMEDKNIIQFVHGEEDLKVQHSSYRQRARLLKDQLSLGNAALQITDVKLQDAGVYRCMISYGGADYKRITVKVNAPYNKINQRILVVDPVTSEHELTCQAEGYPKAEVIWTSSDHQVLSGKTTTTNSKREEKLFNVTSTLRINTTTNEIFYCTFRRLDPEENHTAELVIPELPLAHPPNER
recombinant human 4-1BB (Sino Biological Inc., catalog number 10041-H08H), sequence (Q07011 24-186): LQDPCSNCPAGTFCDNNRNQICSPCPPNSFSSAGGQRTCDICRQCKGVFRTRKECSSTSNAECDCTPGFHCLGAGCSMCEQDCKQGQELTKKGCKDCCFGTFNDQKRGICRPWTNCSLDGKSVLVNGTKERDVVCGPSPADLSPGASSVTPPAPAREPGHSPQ
recombinant human PD-L1 (Sino Biological Inc., catalog number 100 84-H08H), sequence (Q9NZQ7 19-239): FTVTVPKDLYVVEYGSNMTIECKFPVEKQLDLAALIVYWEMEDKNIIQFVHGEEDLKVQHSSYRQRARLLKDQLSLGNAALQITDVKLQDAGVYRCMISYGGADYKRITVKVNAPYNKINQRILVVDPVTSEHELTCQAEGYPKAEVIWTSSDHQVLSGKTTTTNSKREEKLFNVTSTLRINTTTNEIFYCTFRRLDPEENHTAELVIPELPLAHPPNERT

B1: anti-PD-L1/anti-4-1BB heterodimeric antibody BH3120h (bispecific antibody)
heavy 1: not shown
light 1: DIQMTQSPSSLSASVGDRVTITCKASQDVHTAVAWIQQKPGKSPKLLIYSASNRYTGVPSRFSGSGSGTDFTFTISSLQPEDIATYYCQQHYITPLTFGQGTKLEIKRTVAAPSVFIFPPSDEQLKSGTASVVCLLNNFYPREAKVQWKVDNALQSGNSQESVTEQDSKDSTYSLSSTLTLSKADYEKHKVYACEVTHQGLSSPVTKSFNRGEC
heavy 2: QVQLVQSGAEVKKPGSSVKVSCKASGYTFTSYWINWVRQAPGQGLEWMGNIYPSDSYTNYNQKFKDRVTITADKSTSTAYMELSSLRSEDTAVYYCARLYYGSSPFDYWGQGTTVTVSSASTKGPSVFPLAPSSKSTSGGTAALGCLVKDYFPEPVTVSWNSGALTSGVHTFPAVLQSSGLYSLSSVVTVPSSSLGTQTYICNVNHKPSNTKVDKKVEPKSCDKTHTCPPCPAPELLGGPSVFLFPPKPKDTLMISRTPEVTCVVVDVSHEDPEVKFNWYVDGVEVHNAKTKPREEQYASTYRVVSVLTVLHQDWLNGKEYKCKVSNKALPAPIEKTISKAKGQPREPQVYTEPPSRDELTKNQVSLTCLVKGFYPSDIAVEWESNGQPENNYKTTPPVLDSDGSFFLLSVLTVDKSRWQQGNVFSCSVMHEALHNHYTQKSLSLSPGK
light 2: not shown
In the case of B1, the EC50 [1] is reported as 0.345 nM, the EC50 [2] is reported as 4.02 nM and the EC50 [3] is reported as 1.72 nM. The EC50 [4] was 4.86 nM and the EC50 [5] was 0.396 nM.

B2: Anti-PD-L1 mAb (antibody, V domains shown)
VH: EVQLVQSGAEVKKPGSSVKVSCKASGFNIEDTYIHWVRQAPGQGLEWMGRIDPANANTKYDPKFQGRVTITADTSTNTAYMELSSLRSEDTAVYYCGRGLGAWFAYWGQGTLVTVSS
VL: DIQMTQSPSSLSASVGDRVTITCKASQDVHTAVAWIQQKPGKSPKLLIYSASNRYTGVPSRFSGSGSGTDFTFTISSLQPEDIATYYCQQHYITPLTFGQGTKLEIK
B2 was tested, and the EC50 [1] was 0.102 nM, the EC50 [3] was 0.656 nM and the EC50 [4] was 0.884 nM.

B3: Anti-4-1BB mAb (antibody, V domains shown)
VH: QVQLVQSGAEVKKPGSSVKVSCKASGYTFTSYWINWVRQAPGQGLEWMGNIYPSDSYTNYNQKFKDRVTITADKSTSTAYMELSSLRSEDTAVYYCARLYYGSSPFDYWGQGTTVTVSS
VL: DIQMTQSPSSLSASVGDRVTITCRASQDISNYLNWYQQKPGKVPKLLIYHTSRLHSGVPSRFSGSGSGTDFTLTISSLQPEDVATYYCQQGHTLPRTFGGGTKVEIK
For B3, the EC50 [2] was 0.045 nM and the EC50 [5] was 1.28 nM.
